Data: paper doi:10.1101/488049 (bioRxiv, 2018)

Biological target: T1, KIF1C-GFP (recombinant full-length human KIF1C, 6His-KIF1C-GFP) (human, UniProt O43896 1-1103)
T1 sequence (looked up): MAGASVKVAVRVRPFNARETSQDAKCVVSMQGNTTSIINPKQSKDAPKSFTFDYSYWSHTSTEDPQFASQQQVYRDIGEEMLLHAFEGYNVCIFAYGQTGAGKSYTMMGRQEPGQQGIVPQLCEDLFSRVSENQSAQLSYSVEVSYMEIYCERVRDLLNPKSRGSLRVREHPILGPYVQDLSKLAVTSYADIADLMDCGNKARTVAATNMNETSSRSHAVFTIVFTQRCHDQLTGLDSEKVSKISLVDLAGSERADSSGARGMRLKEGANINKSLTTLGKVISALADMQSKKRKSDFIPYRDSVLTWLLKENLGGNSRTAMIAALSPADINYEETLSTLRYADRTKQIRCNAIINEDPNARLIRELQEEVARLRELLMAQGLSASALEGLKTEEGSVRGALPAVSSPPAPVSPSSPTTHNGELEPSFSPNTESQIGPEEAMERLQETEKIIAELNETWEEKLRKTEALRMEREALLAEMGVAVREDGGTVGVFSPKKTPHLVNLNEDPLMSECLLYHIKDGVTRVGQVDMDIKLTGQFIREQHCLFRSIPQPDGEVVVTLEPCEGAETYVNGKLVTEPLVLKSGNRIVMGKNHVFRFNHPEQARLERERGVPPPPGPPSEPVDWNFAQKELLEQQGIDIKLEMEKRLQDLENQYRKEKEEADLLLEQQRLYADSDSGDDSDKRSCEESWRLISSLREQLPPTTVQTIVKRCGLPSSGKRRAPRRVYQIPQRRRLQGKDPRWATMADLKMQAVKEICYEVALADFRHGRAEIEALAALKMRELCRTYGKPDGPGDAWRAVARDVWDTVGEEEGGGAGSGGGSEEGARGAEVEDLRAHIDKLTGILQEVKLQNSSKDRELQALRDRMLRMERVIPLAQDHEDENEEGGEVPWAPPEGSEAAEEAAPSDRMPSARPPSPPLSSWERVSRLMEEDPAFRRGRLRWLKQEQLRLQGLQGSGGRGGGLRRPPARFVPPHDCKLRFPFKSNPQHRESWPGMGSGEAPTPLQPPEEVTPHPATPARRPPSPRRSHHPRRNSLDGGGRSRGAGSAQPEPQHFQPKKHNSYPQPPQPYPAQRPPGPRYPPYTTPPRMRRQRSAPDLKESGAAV
Test: cell-based or functional assay

B1: Hook3-SNAPf labelled with Alexa647 (recombinant human Hook3 with a C-terminal SNAP-tag) (natural protein, UniProt Q86VS8 1-718, looked up)
chain: MFSVESLERAELCESLLTWIQTFNVDAPCQTVEDLTNGVVMAQVLQKIDPAYFDENWLNRIKTEVGDNWRLKISNLKKILKGILDYNHEILGQQINDFTLPDVNLIGEHSDAAELGRMLQLILGCAVNCEQKQEYIQAIMMMEESVQHVVMTAIQELMSKESPVSAGNDAYVDLDRQLKKTTEELNEALSAKEEIAQRCHELDMQVAALQEEKSSLLAENQVLMERLNQSDSIEDPNSPAGRRHLQLQTQLEQLQEETFRLEAAKDDYRIRCEELEKEISELRQQNDELTTLADEAQSLKDEIDVLRHSSDKVSKLEGQVESYKKKLEDLGDLRRQVKLLEEKNTMYMQNTVSLEEELRKANAARSQLETYKRQVVELQNRLSEESKKADKLDFEYKRLKEKVDSLQKEKDRLRTERDSLKETIEELRCVQAQEGQLTTQGLMPLGSQESSDSLAAEIVTPEIREKLIRLQHENKMLKLNQEGSDNEKIALLQSLLDDANLRKNELETENRLVNQRLLEVQSQVEELQKSLQDQGSKAEDSVLLKKKLEEHLEKLHEANNELQKKRAIIEDLEPRFNNSSLKIEELQEALRKKEEEMKQMEERYKKYLEKAKSVIRTLDPKQNQGAAPEIQALKNQLQERDRLFHSLEKEYEKTKSQREMEEKYIVSAWYNMGMTLHKKAAEDRLASTGSGQSFLARQRQATSSRRSYPGHVQPATAR
modifications: Alexa Fluor 647 on the SNAP tag (SNAP-Surface Alexa Fluor 647)
In the case of B1, the “landing rate of KIF1C-GFP on microtubules in single molecule assays, 320 nM KIF1C preincubated with 500 nM Hook3-647” value is reported as 2 fold.
